T1: ACF (Rattus norvegicus, UniProt Q923K9)
T1 construct: from tissue; host or cells: rat liver nuclear extract (27S gradient fractions)
T1 sequence (Q923K9 1-586 isoform Q923K9-2): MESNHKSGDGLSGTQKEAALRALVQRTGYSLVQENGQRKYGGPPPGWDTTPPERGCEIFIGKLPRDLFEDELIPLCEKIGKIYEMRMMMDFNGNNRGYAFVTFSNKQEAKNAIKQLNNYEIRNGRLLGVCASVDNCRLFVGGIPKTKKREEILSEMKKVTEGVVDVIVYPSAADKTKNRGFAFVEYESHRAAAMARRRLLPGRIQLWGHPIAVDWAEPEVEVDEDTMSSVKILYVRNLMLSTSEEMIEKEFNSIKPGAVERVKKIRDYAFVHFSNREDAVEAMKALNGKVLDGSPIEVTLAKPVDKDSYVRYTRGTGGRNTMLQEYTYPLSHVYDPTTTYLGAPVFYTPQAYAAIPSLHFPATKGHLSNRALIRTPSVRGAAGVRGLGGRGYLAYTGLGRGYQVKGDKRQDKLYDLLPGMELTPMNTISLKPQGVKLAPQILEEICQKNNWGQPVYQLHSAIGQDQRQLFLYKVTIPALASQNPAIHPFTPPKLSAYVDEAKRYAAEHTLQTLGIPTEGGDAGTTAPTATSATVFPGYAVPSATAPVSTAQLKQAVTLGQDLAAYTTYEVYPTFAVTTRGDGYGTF


How the values were obtained:
[1] = tested on: apoB mRNA; experiment: ultraviolet light cross-linking of ACF (p66) to apoB RNA in liver nuclear extract; assay type: binding, rat
Description: (§1) In vitro editing reactions and RNA binding assays. In vitro editing reactions and quantitative poisoned-primer extension assays were carried out using 80 μg of extract proteins as previously described (Shah et al. (1993), Smith, H. C. (1998)). ApoB RNA binding assays were performed by subjecting nuclear extract (80 μg) to in vitro editosome assembly and ultraviolet crosslinking (Smith, H. C. (1998)).
To further investigate the role of phosphorylation, rat liver nuclear extract was treated with CIAP and assayed for in vitro apoB RNA editing activity. […] Phosphorylation can play a role in the subcellular localization and/or stability of ACF. […] These yields were achieved by treatment of rat primary hepatocytes (40 T25 flasks) with 0.45% ethanol for four hours in the presence of 70 mCi of total inorganic ^32P followed by immunoprecipitation of ACF64/65 (FIG. 32). Two IPs were resolved by PAGE (FIG. 32, Coomassie) and ACF64/65 identified (western).

[2] = tested on: ACF/APOBEC-1 complexes; experiment: co-immunoprecipitation of HA-tagged APOBEC-1 with ACF from McArdle nuclear extracts; assay type: biochemical, rat; conditions: nuclear extracts treated with CIAP
Description: Nuclear extracts were immunoprecipitated with ACF CT antibody and processed as described in FIG. 1. For CIAP treatment extracts were adjusted to 5 mM MgCl2, 3 mM CaCl2, 0.1 mM ZnCl2 and 25% glycerol and then incubated with 5U CIAP for 1 hour at 30° C. Control extracts were treated similarly but lacked phosphatase. The ratios of APOBEC-1:ACF were determined by scanning densitometry and quantitation using ImageJ Software. HC, position of 1g heavy chain. (n=4, standard deviation+/−0.2). […] In vitro editing activity was determined using the poisoned-primer extension assay. The percent editing was quantified by PhoshorImager (Molecular Dynamics) scanning densitometry. Data shown is representative of 3 independent experiments. *Statistical significance was determined to be P≦0.01 by unpaired t-test relative to control. […] Quantitation of relative amounts of ACF bound was performed using PhoshorImager scanning densitometry. Data shown are representative of 4 independent experiments. *Statistical significance was determined to be P≦0.01 by unpaired t-test relative to control.
Given the selective recovery of APOBEC-1 with nuclear ACF (FIG. 1), the interaction between ACF and APOBEC-1 was explored in nuclear extracts was mediated by post-translational modifications such as protein phosphorylation.

[3] = molecular target: T1, ACF; experiment: removal of 32P label from immunoprecipitated hepatic ACF; assay type: biochemical; conditions: in vivo labeled rat hepatic nuclear extract
Description: ACF is a phosphoprotein. Previous studies using site-directed mutagenesis of APOBEC-1 and overexpression of protein kinase Co implicated phosphorylation of APOBEC-1 as a mechanism for activating apoB mRNA editing (Chen et al. (2001)). To evaluate whether endogenous ACF is phosphorylated in vivo, rats were radiolabeled for 4 hours via an intraperitoneal injection of orthophosphoric acid in HEPES-buffered saline. Following extensive digestion of hepatic nuclear extracts with DNase I and RNase T1 to remove radiolabeled nucleic acids, ACF was immunoprecipitated with the CT antibody, resolved by SDS-PAGE, transferred to nitrocellulose and analyzed by autoradiography as well as immunoblotting with ACF NT antibody (FIG. 3A). A single band was detected by autoradiography that super-imposed with ACF-specific immunoblot reactivity. Greater than 90% of the ^32P-label was removed by CIAP treatment (FIG. 3B), consistent with the post-translational phosphorylation of protein. […] The amino acid sequence of rat ACF was predicted contain 23 serine/threonine and 7 tyrosine high probability sites of phosphorylation (http://www.cbs.dtu.dk/services.NetPhos and http://expasy.org/tools/scanprosite). […] Nuclear ACF was detected as two predominant charge isoforms (FIG. 3B). […]

[4] = tested on: apoB mRNA editing; experiment: in vitro apoB mRNA editing activity of nuclear extract after phosphatase treatment; assay type: biochemical, rat
Description: as §1
As an interaction between ACF and APOBEC-1 is critical for editing activity (Metha et al. Mol Cell Biol 20:1846-54 (2000)) the effect of alkaline phosphatase treatment on in vitro editing activity of hepatocyte extracts was investigated.

[5] = molecular target: mooring sequence; conditions: read-out: Kd for the mooring sequence / apoB mRNA; cited from earlier work

| Molecule | ultraviolet light cross-linking of ACF to apoB mRNA ([1]; 1, 5 or 10 U) | increase in yield of cross-linked p66 compared to control ([1]; highest CIAP treatment) [%] | reduction in HA-tagged APOBEC-1 recovered with immunoprecipitated ACF [2] [fold] | 32P-label removed from ACF [3] | inhibition of apoB mRNA editing activity relative to control extracts ([4]; CIAP-treated nuclear extract) [fold] | inhibition of in vitro editing activity compared to buffer-treated control extracts ([4]; rat liver nuclear extracts) [%] | Kd [5] [nM] |
| --- | --- | --- | --- | --- | --- | --- | --- |
| CIAP: Calf Intestinal Alkaline Phosphatase (protein, UniProt P19111 20-506, looked up) Intestinal-type alkaline …: LVPVEEEDPAFWNRQAAQALDVAKKLQPIQTAAKNVILFLGDGMGVPTVTATRILKGQMNGKLGPETPLAMDQFPYVALSKTYNVDRQVPDSAGTATAYLCGVKGNYRTIGVSAAARYNQCKTTRGNEVTSVMNRAKKAGKSVGVVTTTRVQHASPAGAYAHTVNRNWYSDADLPADAQMNGCQDIAAQLVNNMDIDVILGGGRKYMFPVGTPDPEYPDDASVNGVRKRKQNLVQAWQAKHQGAQYVWNRTALLQAADDSSVTHLMGLFEPADMKYNVQQDHTKDPTLQEMTEVALRVVSRNPRGFYLFVEGGRIDHGHHDDKAYMALTEAGMFDNAIAKANELTSELDTLILVTADHSHVFSFGGYTLRGTSIFGLAPSKALDSKSYTSILYGNGPGYALGGGSRPDVNDSTSEDPSYQQQAAVPQASETHGGEDVAVFARGPQAHLVHGVEEETFVAHIMAFAGCVEPYTDCNLPAPTTATSIPD | did not significantly increase ultraviolet light cross-linking of ACF to apoB mRNA | 40 | 3 | Greater than 90% | 2.5 | > 50 |  |
| ACF: APOBEC-1 Complementation Factor (protein, UniProt Q923K9 1-594, looked up) APOBEC1 complementation factor: MESNHKSGDGLSGTQKEAALRALVQRTGYSLVQENGQRKYGGPPPGWDTTPPERGCEIFIGKLPRDLFEDELIPLCEKIGKIYEMRMMMDFNGNNRGYAFVTFSNKQEAKNAIKQLNNYEIRNGRLLGVCASVDNCRLFVGGIPKTKKREEILSEMKKVTEGVVDVIVYPSAADKTKNRGFAFVEYESHRAAAMARRRLLPGRIQLWGHPIAVDWAEPEVEVDEDTMSSVKILYVRNLMLSTSEEMIEKEFNSIKPGAVERVKKIRDYAFVHFSNREDAVEAMKALNGKVLDGSPIEVTLAKPVDKDSYVRYTRGTGGRNTMLQEYTYPLSHVYDPTTTYLGAPVFYTPQAYAAIPSLHFPATKGHLSNRALIRTPSVREIYMNVPVGAAGVRGLGGRGYLAYTGLGRGYQVKGDKRQDKLYDLLPGMELTPMNTISLKPQGVKLAPQILEEICQKNNWGQPVYQLHSAIGQDQRQLFLYKVTIPALASQNPAIHPFTPPKLSAYVDEAKRYAAEHTLQTLGIPTEGGDAGTTAPTATSATVFPGYAVPSATAPVSTAQLKQAVTLGQDLAAYTTYEVYPTFAVTTRGDGYGTF |  |  |  |  |  |  | 8 |

— patent US20090075925A1, “Methods and Compositions Related to APOBEC-1 Expression” (priority 2006, published 2009)
